Measurements taken from patent US20220401475A1 (Memorial Sloan Kettering, published 2022).

Molecular target: T1, B-cell maturation antigen (BCMA) (human, UniProt Q02223 1-184)
T1 construct: whole, on cells
T1 sequence (looked up): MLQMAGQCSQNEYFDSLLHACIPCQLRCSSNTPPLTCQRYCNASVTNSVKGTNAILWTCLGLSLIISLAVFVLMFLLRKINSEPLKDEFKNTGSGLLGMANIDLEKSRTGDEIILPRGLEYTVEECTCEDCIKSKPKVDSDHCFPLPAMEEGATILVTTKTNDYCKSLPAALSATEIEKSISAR
Assay: Flow cytometric trogocytosis assay: 1:1 co-culture of CAR T cells with KMS-12-BM for 0, 1, 2 and 4 h. BCMA loss from the tumour cells (upper panel) and BCMA gain on CAR T cells (lower panel). No concentration axis.

binding result: no binding
B1: 22-BBζ CAR (CD22-BBζ-DsRed, m971 CD22-specific scFv) (other)
chain: QVQLQQSGPGLVKPSQTLSLTCAISGDSVSSNSAAWNWIRQSPSRGLEWLGRTYYRSKWYNDYAVSVKSRITINPDTSKNQFSLQLNSVTPEDTAVYYCAREVTGDLEDAFDIWGQGTMVTVSSGGGGSDIQMTQSPSSLSASVGDRVTITCRASQTIWSYLNWYQQRPGKAPNLLIYAASSLQSGVPSRFSGRGSGTDFTLTISSLQAEDFATYYCQQSYSIPQTFGQGTKLEIKAAAPTTTPAPRPPTPAPTIASQPLSLRPEACRPAAGGAVHTRGLDFACDIYIWAPLAGTCGVLLLSLVITLYCNKRGRKKLLYIFKQPFMRPVQTTQEEDGCSCRFPEEEEGGCELRVKFSRSADAPAYQQGQNQLYNELNLGRREEYDVLDKRRGRDPEMGGKPRRKNPQEGLYNELQKDKMAEAYSEIGMKGERRRGKGHDGLYQGLSTATKDTYDALHMQALPPR
notes: Chimeric antigen receptor on human T cells
